Reference: the supplement of paper PMC10126150
± gives the standard deviation of the averaged measurements.
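Also: ATP exposure 15 min at 22 °C before imaging.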

These sequences were tested on ATP (assay: switch fluorescence ratio, 500 uM ATP over buffer (Cy3 cluster intensity, sum of 5 cycles each) (fold (ratio)); higher = stronger signal-on switching upon ATP binding; sequences stand for … in TCGTCGGCAGCGTCAGATGTGTATAAGAGACAGTTTTTTTTTTTTTTTTTTTTTTTTT…TC). Settings: aptamer strand: ATP DNA aptamer (quencher-CACCTGGGGGAGTATTGCGGAGGAAGG + anchor), 100 nM annealed; ATP concentration: 500 uM.
How it was run: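 The quencher-labelled ATP aptamer, at 100 nM, was annealed to Cy3-labelled switching-strand clusters on a modified Illumina MiSeq flow-cell. The clusters were imaged in selection buffer, then after 15 min with 500 uM ATP at 22 °C, and this buffer/ATP cycle ran five times with NaOH stripping and re-annealing between runs. Per-cluster fluorescence ratios, summed target-cycle over summed buffer-cycle Cy3 intensity, were averaged per switch-domain sequence. Clusters outside 100-1000 RFU were excluded.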
With CCTTTTCGTG the switch fluorescence ratio was 1.003 ± 0.0043.
With TACAGAATGT the switch fluorescence ratio was 1.03 ± 0.023.
With TTTTTTAGCC the switch fluorescence ratio was 1.02 ± 0.091.
TATGAAAAGT gave a switch fluorescence ratio of 0.9926 ± 0.0072.
AATATGATAA gave a switch fluorescence ratio of 1.01 ± 0.053.
CGGGTCTTGT gave a switch fluorescence ratio of 0.98864 ± 0.00032.
In the case of CCCGGATTTG, the switch fluorescence ratio is reported as 1.01 ± 0.055.
Work on GATTTTGTGC yielded a switch fluorescence ratio of 1 ± 0.054.
AACACAGGTA was tested, and the switch fluorescence ratio was 1.06 ± 0.013.
AGCTAGGAGC was tested, and the switch fluorescence ratio was 0.972 ± 0.021.
In the case of AACTGAAGTG, the switch fluorescence ratio is reported as 0.984 ± 0.023.
In the case of TCTTCGACCG, the switch fluorescence ratio is reported as 1.31 ± 0.28.
Sequence GGTGTGTTTG has a switch fluorescence ratio of 1.01 ± 0.046.
With GGGTGAAAAC the switch fluorescence ratio was 1.03 ± 0.014.
For CGGGTAGAAG, the switch fluorescence ratio was 0.971 ± 0.046.
AGTAGTACGG showed a switch fluorescence ratio of 1 ± 0.029.
Sequence TCGGAGGCGG has a switch fluorescence ratio of 1.007 ± 0.0069.
In the case of ACTATTGGTA, the switch fluorescence ratio is reported as 1.03 ± 0.046.
GCGCTTAAGT showed a switch fluorescence ratio of 0.986 ± 0.043.
TATGTAGGAG gave a switch fluorescence ratio of 0.994 ± 0.018.
ACACACGACG showed a switch fluorescence ratio of 1.29 ± 0.013.
For TAAAAACGGA, the switch fluorescence ratio was 0.989 ± 0.042.
Work on TTGTGTGGTG yielded a switch fluorescence ratio of 0.98 ± 0.011.
Work on GTCGCTGTGG yielded a switch fluorescence ratio of 1.04 ± 0.0021.
For ACTATATTGG, the switch fluorescence ratio was 1.065 ± 0.0095.
Work on TAAGTAGCAG yielded a switch fluorescence ratio of 0.997 ± 0.025.
CATCCCTCAA showed a switch fluorescence ratio of 1.86 ± 0.72.
ATAATAGGGC showed a switch fluorescence ratio of 1 ± 0.015.
GGACGGCTGC showed a switch fluorescence ratio of 1.02 ± 0.029.
Work on GACATTAAGG yielded a switch fluorescence ratio of 1.01 ± 0.084.
Work on TTAAACCCAC yielded a switch fluorescence ratio of 1.35 ± 0.023.
Sequence GGGTGGGCGT has a switch fluorescence ratio of 1.05 ± 0.043.
In the case of TAAAGGAGTT, the switch fluorescence ratio is reported as 0.981 ± 0.032.
Sequence GATATATATG has a switch fluorescence ratio of 1.01 ± 0.015.
With AAGGGCGGAT the switch fluorescence ratio was 1.02 ± 0.021.
In the case of GGTTCAGGGT, the switch fluorescence ratio is reported as 1.02 ± 0.023.
TTTTTCCGCT gave a switch fluorescence ratio of 1.86 ± 1.
AAGGCGCGGT gave a switch fluorescence ratio of 1.03 ± 0.011.
Work on GAGGTATGTT yielded a switch fluorescence ratio of 0.999 ± 0.02.
TAGCAATGTT gave a switch fluorescence ratio of 1.64 ± 0.52.
For AAGGTTTAAG, the switch fluorescence ratio was 0.999 ± 0.011.
Sequence AGTCCTTTTT has a switch fluorescence ratio of 0.979 ± 0.021.
For TTCTTAGAAA, the switch fluorescence ratio was 0.991 ± 0.019.
GGGCGTGGTT was tested, and the switch fluorescence ratio was 0.965 ± 0.017.
Sequence ACTCGGTGGG has a switch fluorescence ratio of 1.01 ± 0.035.
CACTCATACT showed a switch fluorescence ratio of 1.16 ± 0.029.
GATAGGGGAC gave a switch fluorescence ratio of 1.03 ± 0.039.
CCGTAGGAGG showed a switch fluorescence ratio of 1 ± 0.021.
Sequence TTTGGGGTG has a switch fluorescence ratio of 1.04 ± 0.022.
Work on ACCATGTACT yielded a switch fluorescence ratio of 1.07 ± 0.016.
For TTGCAAGGTT, the switch fluorescence ratio was 1.01 ± 0.017.
Work on TTAAATAAAA yielded a switch fluorescence ratio of 0.999 ± 0.028.
With TTCGCTAGCT the switch fluorescence ratio was 1.03 ± 0.058.
Work on GAGTTTTCTA yielded a switch fluorescence ratio of 0.9987 ± 0.0081.
For CAGGTTTCGT, the switch fluorescence ratio was 0.989 ± 0.021.
Sequence AAGTATTATC has a switch fluorescence ratio of 1.01 ± 0.019.
CGTCTGGCGG showed a switch fluorescence ratio of 1.01 ± 0.021.
AGTTTTTAGG showed a switch fluorescence ratio of 0.99 ± 0.024.
AGAACTCACC gave a switch fluorescence ratio of 1.19 ± 0.049.
GACCGGCGTC was tested, and the switch fluorescence ratio was 1.02 ± 0.017.
Sequence TTTTCCTGGA has a switch fluorescence ratio of 1.03 ± 0.066.
With CTTTGTAGCC the switch fluorescence ratio was 1.05 ± 0.012.
In the case of AGGTAGAGGA, the switch fluorescence ratio is reported as 1.01 ± 0.035.
With CGGGGCTAGG the switch fluorescence ratio was 0.992 ± 0.017.
In the case of GAAAAAACGT, the switch fluorescence ratio is reported as 1.05 ± 0.038.
GGAGGGGTTG showed a switch fluorescence ratio of 1.04 ± 0.015.
With TCAACGTCAG the switch fluorescence ratio was 0.9872 ± 0.0048.
Sequence TGGACATGTG has a switch fluorescence ratio of 1.05 ± 0.1.
Sequence GGCGGATATA has a switch fluorescence ratio of 0.9553 ± 0.0058.
In the case of TGTTTTTGTT, the switch fluorescence ratio is reported as 1.01 ± 0.058.
Work on CATAGTTCGT yielded a switch fluorescence ratio of 0.988 ± 0.016.
Work on TTGTGCCTAT yielded a switch fluorescence ratio of 1.005 ± 0.0071.
Work on TTGGTATAA yielded a switch fluorescence ratio of 0.999 ± 0.021.
ATGATGTAGG was tested, and the switch fluorescence ratio was 1.033 ± 0.0075.
Sequence TGAGGCACGG has a switch fluorescence ratio of 1.05 ± 0.056.
Work on AATTTCGTTG yielded a switch fluorescence ratio of 0.999 ± 0.029.
With GTTCGGTATG the switch fluorescence ratio was 0.984 ± 0.033.
In the case of GACGGTTGAG, the switch fluorescence ratio is reported as 1.025 ± 0.0057.
TGGGGCGACT showed a switch fluorescence ratio of 0.991 ± 0.021.
In the case of CGTTCTCCCC, the switch fluorescence ratio is reported as 1.03 ± 0.068.
For CCGTAATCAG, the switch fluorescence ratio was 1.98 ± 0.14.
For AGTAATGTTT, the switch fluorescence ratio was 0.994 ± 0.02.
Work on GGGGGTTGCG yielded a switch fluorescence ratio of 0.979 ± 0.015.
TTTGAGAAAG gave a switch fluorescence ratio of 0.992 ± 0.019.
Sequence GGCCATTGTG has a switch fluorescence ratio of 0.982 ± 0.023.
TACTGGGGTA showed a switch fluorescence ratio of 1.02 ± 0.028.
GTGGTTCCTG gave a switch fluorescence ratio of 0.967 ± 0.015.
In the case of GTAAACGGGT, the switch fluorescence ratio is reported as 0.963 ± 0.016.
With TTATGAAAGC the switch fluorescence ratio was 1.02 ± 0.042.
Sequence TCCTGAAATT has a switch fluorescence ratio of 0.987 ± 0.015.
With CTTATAGTGC the switch fluorescence ratio was 0.974 ± 0.0023.
GAGAAATGCG showed a switch fluorescence ratio of 1.03 ± 0.012.
Work on TGTTGTCTTG yielded a switch fluorescence ratio of 0.98616 ± 6.6e-05.
ACGGAACAAG showed a switch fluorescence ratio of 1.09 ± 0.12.
For GGGGACCGCG, the switch fluorescence ratio was 0.969 ± 0.016.
Work on ACCCTCGGGG yielded a switch fluorescence ratio of 1.0015 ± 0.00096.
ATCAGGGTAT was tested, and the switch fluorescence ratio was 1.07 ± 0.089.
TTCAGTTTTG was tested, and the switch fluorescence ratio was 0.982 ± 0.024.
Work on CCTGTAGTCT yielded a switch fluorescence ratio of 1.04 ± 0.039.
In the case of TTCGTGTACA, the switch fluorescence ratio is reported as 1.03 ± 0.026.
